The source of these data is paper PMC4963926 (Journal of Translational Medicine, 2016).

This data set concerns the molecule itself. Kind of data set: SDS-PAGE and immunoblotting of the purified protein. In general terms: A western blot detects proteins with antibodies after separation by electrophoresis.

B1: HPV16 His6-E6 protein (natural protein)
chain: MHQKRTAMFQDPQERPRKLPQLCTELQTTIHDIILECVYCKQQLLRREVYDFAFRDLCIVYRDGNPYAVCDKCLKFYSKISEYRHYCYSLYGTTLEQQYNKPLCDLLIRCINCQKPLCPEEKQRHLDKKQRFHNIRGRWTGRCMSCCRSSRTRRETQL
notes: also called HR-HPV16 His6-E6; HPV16 E6
Take B1: the binding result was “binds”.

B2: HPV11 His6-E6 protein (natural protein)
chain: MESKDASTSATSIDQLCKTFNLSLHTLQIQCVFCRNALTTAEIYAYAYKNLKVVWRDNFPFAACACCLELQGKINQYRHFNYAAYAPTVEEETNEDILKVLIRCYLCHKPLCEIEKLKHILGKARFIKLNNQWKGRCLHCWTTCMEDLLP
On to B2, for which the binding result was “binds”.
